Assay results from PMC11791182, “Molecular mechanism targeting condensin for chromosome condensation” (The EMBO Journal, 2024).
Blank lines part the entries; values can stand above or below the binder they belong to.

How the values were obtained:
Settings in all cases: both partners purified
[1] = biological target: T1, Ycg1 (6–932, Δ499–555)-Brn1 (384–529) (S. cerevisiae, UniProt Q06680 6-932; P38170 384-529, Δ499–555); experiment: co-IP; two purified recombinant proteins with anti-GFP-coupled dynabeads (GFP-Sgo1 variants held), 2.5 h; 25 mM HEPES pH 7.5, 500 mM NaCl, 10% glycerol, 1 mM DTT, 0.1% NP-40; silver-stained SDS-PAGE
T1 construct: Ycg1, condensin HAWK subunit, S. cerevisiae, residues 6-932 with 499-555 deleted; Brn1, condensin kleisin subunit, S. cerevisiae, residues 384-529; Construct was a gift of Christian Haering (Kschonsak et al, 2017); also called Ycg1-Brn1; source: E. coli, purified (as described previously, Kschonsak et al, 2017)
T1 sequence (looked up) 1: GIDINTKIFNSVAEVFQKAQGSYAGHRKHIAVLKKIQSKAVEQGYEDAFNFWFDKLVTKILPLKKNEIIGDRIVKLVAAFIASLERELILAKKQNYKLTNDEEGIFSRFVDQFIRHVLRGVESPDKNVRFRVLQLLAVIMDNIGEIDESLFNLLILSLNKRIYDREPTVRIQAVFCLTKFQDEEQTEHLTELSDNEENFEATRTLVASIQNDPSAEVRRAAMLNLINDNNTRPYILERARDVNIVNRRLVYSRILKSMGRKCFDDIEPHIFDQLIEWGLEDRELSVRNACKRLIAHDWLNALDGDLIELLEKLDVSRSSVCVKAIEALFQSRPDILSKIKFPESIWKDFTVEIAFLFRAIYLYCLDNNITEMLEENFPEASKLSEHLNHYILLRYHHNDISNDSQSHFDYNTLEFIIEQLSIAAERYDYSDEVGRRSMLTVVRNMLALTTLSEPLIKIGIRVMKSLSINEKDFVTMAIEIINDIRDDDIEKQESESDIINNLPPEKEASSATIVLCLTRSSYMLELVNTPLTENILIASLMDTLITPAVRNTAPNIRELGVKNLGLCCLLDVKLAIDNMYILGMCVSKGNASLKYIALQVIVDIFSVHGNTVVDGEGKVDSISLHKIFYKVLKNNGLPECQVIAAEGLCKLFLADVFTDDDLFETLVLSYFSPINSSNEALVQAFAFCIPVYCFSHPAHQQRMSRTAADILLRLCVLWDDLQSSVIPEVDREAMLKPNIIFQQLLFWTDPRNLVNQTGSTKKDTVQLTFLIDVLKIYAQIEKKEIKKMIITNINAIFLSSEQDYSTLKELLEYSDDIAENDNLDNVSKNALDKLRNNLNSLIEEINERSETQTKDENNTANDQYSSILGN
T1 sequence (looked up) 2: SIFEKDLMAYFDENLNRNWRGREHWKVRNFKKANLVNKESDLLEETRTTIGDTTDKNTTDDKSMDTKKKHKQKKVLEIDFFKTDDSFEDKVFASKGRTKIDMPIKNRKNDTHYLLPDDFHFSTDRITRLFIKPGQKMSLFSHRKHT

[2] = biological target: T1, Ycg1 (6–932, Δ499–555)-Brn1 (384–529); experiment: SEC; Sgo1 (350–590) with Ycg1 (6–932, Δ499–555)-Brn1 (384–529); Superdex200 10/300 24 ml column; 10 mM Tris-HCl pH 7.5, 250 mM NaCl, 5% glycerol, 0.001% Tween-20
[3] = biological target: T2, pentameric condensin holo-complex (S. cerevisiae, UniProt P38989 1-1170; Q12267 1-1418; P38170 1-754; Q06680 1-1035; Q06156 1-1176); experiment: co-IP; two purified recombinant proteins with anti-V5-coupled dynabeads (V5-Sgo1 held), 2.5 h; 25 mM HEPES pH 7.5, 500 mM NaCl, 10% glycerol, 1 mM DTT, 0.1% NP-40; silver-stained SDS-PAGE and immunoblot
T2 construct: Smc2, condensin subunit, S. cerevisiae; Smc4, condensin subunit, S. cerevisiae; Brn1, condensin kleisin subunit, S. cerevisiae; Ycg1, condensin HAWK subunit, S. cerevisiae; Ycs4, condensin HAWK subunit, S. cerevisiae; Constructs were a gift (St-Pierre et al, 2009); also called Sc condensin complex; condensin (Brn1-6HA); source: purified from yeast (as described previously, Kschonsak et al, 2017); …

binding result [1]: binds
B1: GFP-Sgo1 (472-530) (domain or fragment, S. cerevisiae, UniProt Q08490 472-530, looked up)
chain: KNEKKLTSNNSPKKSSPLLDITNKSENKKKSTRTKKLFKNAIVNNLSDENSTTRPSKSS
notes: Sgo1 (shugoshin), S. cerevisiae, residues 472-530; also called Recombinant Sgo1 (472-530), wild type; source: E. coli BL21(DE3), purified (Ni-NTA resin, dialysis)

binding result [1]: binds
B2: GFP-Sgo1 (350–590) (domain or fragment, S. cerevisiae, UniProt Q08490 350-590, looked up)
chain: EVMPVSNMSSNSEISFTRTRRTRGKAVDYTLPSLRAKMRRPSEKLVDATTVIDIHDLQVSKRNRETSHKRKSLSQDSIPDEPQLREVVVSKDYGTPKGKKTEDEIHEDTAHLMTTSNNNSNNKNEKKLTSNNSPKKSSPLLDITNKSENKKKSTRTKKLFKNAIVNNLSDENSTTRPSKSSKGTSNNNNNYNNFDNNNSNINNVNNKSVSFRLNEDDLAVFDLFGNGKAVKHQPKTYRTKK
notes: Sgo1 (shugoshin), S. cerevisiae, residues 350-590; also called C-terminal region of Sgo1 (residues 350–590); C-Sgo1

binding result [2]: binds | binding result [3]: binds
B3: V5-Sgo1 (350–590) (domain or fragment, S. cerevisiae, UniProt Q08490 350-590, looked up)
chain: B2 chain
notes: Sgo1 (shugoshin), S. cerevisiae, residues 350-590; also called recombinant C-terminal region of Sgo1 (350–590); source: protease-deficient yeast strain (AM8184), galactose induced, purified (Ni2+ IMAC, Superose 6 gel filtration)

binding result [3]: binds
B4: V5-Sgo1 (FL) (natural protein, S. cerevisiae, UniProt Q08490 1-590, looked up)
chain: MPKRKIAPNKESSRRTVSHDDLTPQIQEFQNLMDLESQKVENIRQSYSRQNSLLAKDNSILKIKVNSLEKKISQLVQENVTLRSKTSISEAIYRERLSNQLQVIENGIIQRFDEIFYMFENVRKNENLPSSSLRTMLKRTSSRSRSCSLSSPTYSKSYTRLSNHENNLSHESSFNKDDGPDLEPKAKKRKSSRRQSMFVSTSLEPEDETGENEPMMENSSVEVPAESHESAQVEETIDALNPEEENSDSVSNFTNSIIEYSIPEENPTEPEHSSSKLEIFNDSTNMLSTVPSNPLPLPLPGPSATLPTTTSDASTVYPSSSSSTNSHPKTKIKHSMKPPRIELKKKVIDEVMPVSNMSSNSEISFTRTRRTRGKAVDYTLPSLRAKMRRPSEKLVDATTVIDIHDLQVSKRNRETSHKRKSLSQDSIPDEPQLREVVVSKDYGTPKGKKTEDEIHEDTAHLMTTSNNNSNNKNEKKLTSNNSPKKSSPLLDITNKSENKKKSTRTKKLFKNAIVNNLSDENSTTRPSKSSKGTSNNNNNYNNFDNNNSNINNVNNKSVSFRLNEDDLAVFDLFGNGKAVKHQPKTYRTKK
notes: Sgo1 (shugoshin), S. cerevisiae, full length; also called full-length V5-Sgo1; Sc Sgo1; source: protease-deficient yeast strain (AM8184), purified (Ni2+ IMAC, Superose 6 gel filtration)
